Numbered stars: 1 amine (or outer) side, 2 acyl side, 3 side chain; on linkers, the order of the positions; unused ones are H or OH. Square brackets hold non-standard residues; d marks the D form. Ends that are not written are not given here. * marks the point of attachment. ctb = (S)-2-amino-3-(tert-butylthio)propanoic acid, CC(C)(C)SC[C@@H](N[*:1])C(=O)[*:2]; 6988 = 2-pentyl-benzooxazole-5-carboxylic acid, CCCCCc1nc2cc(C(=O)*)ccc2o1; 3421 = 3-Amino-4-hydroxy-benzoic acid, O=C(c1ccc(O[*:3])c(N[*:1])c1)[*:2]; 4703 = 3-(4-bromo-phenyl)-propionic acid, O=C(CCc1ccc(Br)cc1)*; 4734 = (4-butoxy-phenyl)-acetic acid, CCCCOc1ccc(CC(=O)*)cc1; Pro(trans-4-NH2) = O=C([C@@H]1C[C@@H](N[*:3])CN1[*:1])[*:2]; Sni = (S)-nipecotic acid, O=C([C@H]1CCCN([*:1])C1)[*:2]; 1695 = Piperidine-1,2-dicarboxylic acid 1-benzyl ester; Butanoyl(4-(4-MeO-phenyl)) = COc1ccc(CCCC(=O)*)cc1; Phe(3,4-Cl2) = N[C@@H](Cc1ccc(Cl)c(Cl)c1)C(=O)O; Phe(3-CF3) = N[C@@H](Cc1cccc(C(F)(F)F)c1)C(=O)O; Phe(2-CF3) = N[C@@H](Cc1ccccc1C(F)(F)F)C(=O)O; Pbf = Cc1c(C)c(S(=O)(=O)*)c(C)c2c1OC(C)(C)C2; Phe(3-Cl) = N[C@@H](Cc1cccc(Cl)c1)C(=O)O; Pentanoyl(5-Ph) = O=C(CCCCc1ccccc1)*; Gly(NCH2CH2Ph) = O=C(O)CNCCc1ccccc1; Butanoyl(4-Ph) = O=C(CCCc1ccccc1)*; Gly(cPent) = N[C@H](C(=O)O)C1CCCC1; dDap(Me2) = CN(C)C[C@@H](N)C(=O)O; Hyp = O=C(O)[C@@H]1C[C@@H](O)CN1; 3Thi = N[C@@H](Cc1ccsc1)C(=O)O; NMeL = CN[C@@H](CC(C)C)C(=O)O; Chg = N[C@H](C(=O)O)C1CCCCC1; Nle = CCCC[C@H](N)C(=O)O; Nphe = O=C(O)CNCc1ccccc1; Octanoyl = CCCCCCCC(=O)*; Api = NC1(C(=O)O)CCNCC1; Che = not defined here; Hexanoyl = CCCCCC(=O)*; leu = not defined here; Occ = octanoic acid

Consider 29 molecules from patent US9187525B2, “Methods of treating ophthalmic diseases using NPR-B agonists” (Shire Orphan Therapies GmbH, dated 2015).

Sequences and labels used below:
T1: natriuretic peptide receptor-B (human)
T1 chain: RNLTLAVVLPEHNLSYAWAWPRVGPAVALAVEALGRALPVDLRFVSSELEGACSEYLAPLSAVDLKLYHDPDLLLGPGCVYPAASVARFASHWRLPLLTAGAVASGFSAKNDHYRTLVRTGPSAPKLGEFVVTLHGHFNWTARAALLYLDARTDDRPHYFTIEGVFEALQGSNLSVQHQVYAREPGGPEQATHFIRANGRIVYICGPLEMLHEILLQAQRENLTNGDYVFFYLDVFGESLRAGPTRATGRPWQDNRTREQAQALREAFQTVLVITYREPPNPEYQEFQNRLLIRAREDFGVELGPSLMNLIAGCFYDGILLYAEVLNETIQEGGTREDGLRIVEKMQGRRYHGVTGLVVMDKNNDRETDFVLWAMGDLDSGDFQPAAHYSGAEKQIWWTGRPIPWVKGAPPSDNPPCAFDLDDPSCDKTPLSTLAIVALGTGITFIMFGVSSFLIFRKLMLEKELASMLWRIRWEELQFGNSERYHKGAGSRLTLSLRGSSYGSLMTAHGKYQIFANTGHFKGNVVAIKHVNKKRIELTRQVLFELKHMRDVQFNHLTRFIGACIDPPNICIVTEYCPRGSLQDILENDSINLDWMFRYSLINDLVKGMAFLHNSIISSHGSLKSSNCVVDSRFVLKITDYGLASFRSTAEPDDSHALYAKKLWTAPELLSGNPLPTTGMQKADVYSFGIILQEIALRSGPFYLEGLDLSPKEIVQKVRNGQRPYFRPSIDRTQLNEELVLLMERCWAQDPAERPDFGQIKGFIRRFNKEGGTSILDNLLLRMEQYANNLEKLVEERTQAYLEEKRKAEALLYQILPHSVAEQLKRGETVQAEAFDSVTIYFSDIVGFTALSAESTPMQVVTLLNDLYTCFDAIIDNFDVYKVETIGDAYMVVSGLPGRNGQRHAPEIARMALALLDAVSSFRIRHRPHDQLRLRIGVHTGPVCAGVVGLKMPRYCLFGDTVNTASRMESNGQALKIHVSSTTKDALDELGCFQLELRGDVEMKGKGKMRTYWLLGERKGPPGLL

B1: JAL-1616 (peptide)
peptide: Hexanoyl-[3421][Sni]F[dL]L[Hyp][NMeL]DRI-NH2
modifications: not fully specified; printed as Hex-(3421)-Sni-Phe-leu-Leu-Hyp-Nml-Asp-Arg-Ile-NH2
B2: JAL-0697 (peptide)
peptide: XXFGLKLDRI
HELM: PEPTIDE1{[CCCCCCCC(=O)[*:2]].[O=C(C1CCCN([*:1])C1)[*:2]].F.G.L.K.L.D.R.I.[am]}$$$$V2.0
SMILES: CCCCCCCC(=O)N1CCCC(C(=O)N[C@@H](Cc2ccccc2)C(=O)NCC(=O)N[C@@H](CC(C)C)C(=O)N[C@@H](CCCCN)C(=O)N[C@@H](CC(C)C)C(=O)N[C@@H](CC(=O)O)C(=O)N[C@@H](CCCNC(=N)N)C(=O)N[C@H](C(N)=O)[C@@H](C)CC)C1
B3: JAL-1634 (peptide)
peptide: [Occ][Sni][Nphe][leu]L[Hyp][NMeL]DRI-NH2
modifications: reading uncertain; also: printed as Occ-Sni-NPhe-leu-Leu-Hyp-Nml-Asp-Arg-Ile-NH2
B4: JAL-1604 (peptide)
peptide: [Occ][Sni]F[dDap(Me2)]L[Hyp][NMeL]DP[Che]
modifications: reading uncertain; also: printed as Occ-Sni-Phe-dap(Me2)-Leu-Hyp-Nml-Asp-Pro-Che
B5: JAL-1598 (peptide)
peptide: Octanoyl-[Sni]F[dL][NMeL][Hyp][NMeL]DP[Che]
modifications: not fully specified; printed as Occ-Sni-Phe-leu-Nml-Hyp-Nml-Asp-Pro-Che; reading uncertain
B6: JAL-1603 (peptide)
peptide: [Occ][Sni]F[dDap(Me2)]L[Pro(trans-4-NH2)][NMeL]DP[Che]
modifications: reading uncertain; also: printed as Occ-Sni-Phe-dap(Me2)-Leu-Tap-Nml-Asp-Pro-Che
B7: JAL-1599 (peptide)
peptide: Octanoyl-[Sni][Phe(3,4-Cl2)][dL]L[Hyp][NMeL]DP[Che]
modifications: not fully specified; printed as Occ-Sni-Eaa-leu-Leu-Hyp-Nml-Asp-Pro-Che; reading uncertain
B8: JAL-1635 (peptide)
peptide: [Occ][Sni][Gly(NCH2CH2Ph)][leu]L[Hyp][NMeL]DRI-NH2
modifications: reading uncertain; also: printed as Occ-Sni-NHfe-leu-Leu-Hyp-Nml-Asp-Arg-Ile-NH2

In the assay the target is T1, natriuretic peptide receptor-B. The assay is described as follows: cell-based or functional assay.
For the molecule [Occ][Sni][3Thi][leu]L[Hyp][NMeL]DRI-NH2 (reading uncertain; also: printed as Occ-Sni-Thk-leu-Leu-Hyp-Nml-Asp-Arg-Ile-NH2) [JAL-1620], the “EC50 group, cGMP in GTM-3 cells” value was at most 1 µM.
Turning to [Occ][Sni]F[leu]L[Hyp]IDRI-NH2 (reading uncertain; also: printed as Occ-Sni-Phe-leu-Leu-Hyp-Ile-Asp-Arg-Ile-NH2) [JAL-1625], the “EC50 group, cGMP in GTM-3 cells” value is at most 1 µM.
Consider {Butanoyl(4-Ph)}-[Sni]F[dL]L[Hyp][NMeL]DRI-NH2 [JAL-1605], for which the “EC50 group, cGMP in GTM-3 cells” value was at most 1 µM.
Next, 4703-[Sni]F[dL]L[Hyp][NMeL]DRI-NH2 [JAL-1612]: at most 5 µM.
Under 6988-[Sni]F[dL]L[Hyp][NMeL]DRI-NH2 [JAL-1615] stands at most 15 µM.
Turning to [Occ][Sni]F[Api]L[Hyp][NMeL]DP[Che] (reading uncertain; also: printed as Occ-Sni-Phe-Apc-Leu-Hyp-Nml-Asp-Pro-Che) [JAL-1601], the “EC50 group, cGMP in GTM-3 cells” value is at most 5 µM.
With B1, the “EC50 group, cGMP in GTM-3 cells” value was at most 5 µM.
For {Pentanoyl(5-Ph)}-[Sni]F[dL]L[Hyp][NMeL]DRI-NH2 [JAL-1606], the “EC50 group, cGMP in GTM-3 cells” value was at most 1 µM.
As for [Occ][Sni][Phe(3-CF3)][leu]L[Hyp][NMeL]DRI-NH2 (reading uncertain; also: printed as Occ-Sni-Mtf-leu-Leu-Hyp-Nml-Asp-Arg-Ile-NH2) [JAL-1621], the “EC50 group, cGMP in GTM-3 cells” value was at most 1 µM.
Next, 1695-[Sni]F[dL]L[Hyp][NMeL]DRI-NH2 (not fully specified; printed as 1695-Sni-Phe-leu-Leu-Hyp-Nml-Asp-Arg-Ile-NH2) [JAL-1617]: at most 15 µM.
Next, [Occ][Sni][Phe(2-CF3)][leu]L[Hyp][NMeL]DRI-NH2 (reading uncertain; also: printed as Occ-Sni-Otf-leu-Leu-Hyp-Nml-Asp-Arg-Ile-NH2) [JAL-1622]: at most 15 µM; B2: at most 5 µM.
In the case of [Occ][Sni]F[leu][Nle][Hyp][NMeL]DRI-NH2 (reading uncertain; also: printed as Occ-Sni-Phe-leu-Nle-Hyp-Nml-Asp-Arg-Ile-NH2) [JAL-1624], the “EC50 group, cGMP in GTM-3 cells” value was at most 1 µM.
Under B3 stands at most 15 µM.
Under 4734-[Sni]F[dL]L[Hyp][NMeL]DRI-NH2 [JAL-1609] stands at most 5 µM; under {Pentanoyl(5-Ph)}-[dP]FGLKLDRI-NH2 [JAL-0696], at most 15 µM; under [Occ][Sni]F[ctb]L[Hyp][NMeL]DRI-NH2 [JAL-1623], at most 1 µM.
Next, B4: at most 1 µM.
As to {Butanoyl(4-(4-MeO-phenyl))}-[Sni]F[dL]L[Hyp][NMeL]DRI-NH2 [JAL-1607], the “EC50 group, cGMP in GTM-3 cells” value was at most 15 µM.
Next, B5: at most 15 µM.
Under [Occ][Sni]F[Api]L[Pro(trans-4-NH2)][NMeL]DP[Che] (reading uncertain; also: printed as Occ-Sni-Phe-Apc-Leu-Tap-Nml-Asp-Pro-Che) [JAL-1602] stands at most 1 µM; under [Occ][Sni]FGL[Hyp][NMeL]DP[Che] (reading uncertain; also: printed as Occ-Sni-Phe-Gly-Leu-Hyp-Nml-Asp-Pro-Che) [JAL-1600], at most 5 µM; under [Occ][Sni][Pbf][leu]L[Hyp][NMeL]DRI-NH2 (reading uncertain; also: printed as Occ-Sni-Pbf-leu-Leu-Hyp-Nml-Asp-Arg-Ile-NH2) [JAL-1619], at most 1 µM.
Next, B6: at most 1 µM; Octanoyl-[Sni][Phe(3-Cl)][dL]L[Hyp][NMeL]DRI-NH2 (not fully specified; printed as Occ-Sni-Mcf-leu-Leu-Hyp-Nml-Asp-Arg-Ile-NH2) [JAL-1618]: at most 1 µM.
For B7, the “EC50 group, cGMP in GTM-3 cells” value was at most 1 µM.
Next, [Occ][Sni]F[leu]L[Hyp][Chg]DRI-NH2 (reading uncertain; also: printed as Occ-Sni-Phe-leu-Leu-Hyp-Chg-Asp-Arg-Ile-NH2) [JAL-1627]: at most 5 µM; B8: at most 15 µM; [Occ][Sni]F[leu]L[Hyp][Gly(cPent)]DRI-NH2 (reading uncertain; also: printed as Occ-Sni-Phe-leu-Leu-Hyp-Cpg-Asp-Arg-Ile-NH2) [JAL-1626]: at most 1 µM.
